Assay results: patent publication US20120121557A1

Molecular target: ErbB4 on primary adult rat ventricular cardiomyocytes (rat) (UniProt Q62956)
Assay: cell-based or functional assay

Chain of UniProt Q62956 (Q62956 26-1308): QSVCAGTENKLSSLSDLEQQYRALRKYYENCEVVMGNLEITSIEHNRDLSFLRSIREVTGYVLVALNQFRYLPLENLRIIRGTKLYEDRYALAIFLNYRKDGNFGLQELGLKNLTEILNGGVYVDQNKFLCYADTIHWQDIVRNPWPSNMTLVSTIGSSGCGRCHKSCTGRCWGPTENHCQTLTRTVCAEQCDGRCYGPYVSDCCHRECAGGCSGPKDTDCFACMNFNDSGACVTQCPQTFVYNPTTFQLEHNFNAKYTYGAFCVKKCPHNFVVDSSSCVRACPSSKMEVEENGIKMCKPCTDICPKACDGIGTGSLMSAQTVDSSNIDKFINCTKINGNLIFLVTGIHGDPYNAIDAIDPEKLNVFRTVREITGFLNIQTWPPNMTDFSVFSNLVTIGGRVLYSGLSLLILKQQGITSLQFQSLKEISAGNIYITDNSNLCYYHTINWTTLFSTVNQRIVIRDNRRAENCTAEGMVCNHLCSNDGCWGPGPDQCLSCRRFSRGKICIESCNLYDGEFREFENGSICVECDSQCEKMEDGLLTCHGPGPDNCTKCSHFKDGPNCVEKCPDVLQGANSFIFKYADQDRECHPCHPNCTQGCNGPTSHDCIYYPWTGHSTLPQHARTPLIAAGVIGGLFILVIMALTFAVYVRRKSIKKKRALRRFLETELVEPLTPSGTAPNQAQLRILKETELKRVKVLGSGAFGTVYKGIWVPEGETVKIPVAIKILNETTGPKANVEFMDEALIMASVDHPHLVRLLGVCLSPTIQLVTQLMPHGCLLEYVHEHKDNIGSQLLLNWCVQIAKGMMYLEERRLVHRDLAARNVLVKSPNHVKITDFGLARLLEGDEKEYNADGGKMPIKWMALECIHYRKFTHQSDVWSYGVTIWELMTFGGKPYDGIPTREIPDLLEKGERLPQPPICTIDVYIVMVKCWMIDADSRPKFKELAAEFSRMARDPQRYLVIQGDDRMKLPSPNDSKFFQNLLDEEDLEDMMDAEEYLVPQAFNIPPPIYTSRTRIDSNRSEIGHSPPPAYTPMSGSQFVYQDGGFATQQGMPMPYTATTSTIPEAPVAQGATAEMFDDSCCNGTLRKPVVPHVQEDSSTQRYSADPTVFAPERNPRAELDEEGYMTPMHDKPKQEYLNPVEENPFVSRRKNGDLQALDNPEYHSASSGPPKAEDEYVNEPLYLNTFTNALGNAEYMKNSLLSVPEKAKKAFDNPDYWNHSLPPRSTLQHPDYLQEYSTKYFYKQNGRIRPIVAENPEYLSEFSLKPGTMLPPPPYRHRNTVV

Question: For “NRG1 (EGF-like domain, amino acids 176-246), R&D Systems (from UniProt Q02297-11 121-191) (ligand)”, which half-maximal stimulation EC50 of NRG1-induced DNA synthesis (BrdU uptake) in primary adult rat ventricular cardiomyocytes is on record?
Answer: 0.04 nM
